Assay results: patent CN114904015A (JIANGSU MAIWEIKANG NEW DRUG RES AND DEVELOPMENT CO LTD, dated 2022)

What was measured:
[1] = biological target: T1, 人CLDN18.2 (human CLDN18.2), expressed on the cell surface (human, UniProt P56856-2 1-261); test: FACS (MFI) on CHO/CLDN18.2 cells, from 5 μg/mL in 3-fold dilutions
T1 construct: whole, on cells; also called CHOK1细胞表面稳定表达人CLDN18.2; CHO/CLDN18.2

[2] = biological target: T1, 人CLDN18.2 (human CLDN18.2), expressed …; test: cell-based or functional assay
[3] = biological target: T1, 人CLDN18.2 (human CLDN18.2), expressed …; test: cell-based or functional assay; remark: listed apart in the source

B1: 8k13-hz35 (antibody, IgG1, V domains shown)
VH: EVQLVQSGAEVKKPGSSVKVSCKASGYAFSNYWMNWVRQAPGQGLEWMGQIYPGSGDTKYSGKFQSRVTITADKSTSTAYMELSSLRSEDTAVYYCARFYYGNVMDYWGQGTLVTVSS
VL: DIVLTQSPDSLAVSLGERATINCKSSQTLLSGGNQKNYLTWYQQKPGQPPKLLIYWASTRESGVPDRFSGSGSGTDFTLTISSLQAEDVAVYYCQQGYSYPLTFGQGTKLEIK
notes: Humanised IgG1 / kappa; also called 本发明的裸抗-2; hz8k13-hz35; not shown: human kappa light chain constant region
- binding result [1]: binds

B2: 16k15-hz35 (antibody, IgG1, V domains shown)
VH: EVQLVESGGGLVQPGGSLRLSCAGSGITLSTYAMSWVRQAPGKGLEWVSSIISGGITYYLDSVKGRFTISRDNAKNTLYLQMNSLRAEDTAVYYCARKYHGNALDYWGQGTLVTVSS
VL: DIVMTQSPDSLAVSLGERATINCKSSQSLLSSGNQRNYLTWYQQKPGQPPKKLIYWASTRESGVPDRFSGSGSGTDFTLTISSLQAEDVAVYYCQQNYFYPLTFGQGTKLEIK
notes: Humanised IgG1 / kappa; also called 本发明的裸抗-1; not shown: human kappa light chain constant region
- binding result [1]: binds

B3: 8k13-hz24 (antibody, V domains shown, not shown: large carriers)
VH: QVQLVQSGAEVKKPGSSVKVSCKASGYAFSNYWMNWVRQAPGQGLEWMGQIYPGSGDTKYSGKFQSRVTITADKSTNTAYMELSSLRSEDTAVYYCARFYYGNVMDYWGQGTLVTVSS
VL: DIVLTQSPDSLAVSLGERATINCKSSQTLLSGGNQKNYLTWYQQKPGQPPKLLIYWASTRESGVPDRFSGSGSGTDFTLTISSLQAEDLAVYYCQQGYSYPLTFGQGTKLEIK
- CDC EC50(nM), BxPC3 cells stably expressing human CLDN18.2 [2]: 28.5 nM
- CDC EC50(nM), CHOK1 cells stably expressing human CLDN18.2 [2]: 21.3 nM
- CDC EC50(nM), NCI-N87 cells stably expressing human CLDN18.2 [2]: 57.7 nM
- ADCC reporter (Jurkat FcγRIIIa-FcεRIaγ / NFAT-luciferase) EC50(nM), target-expressing BxPC3 cells [3]: 0.304 nM
- ADCC reporter (Jurkat FcγRIIIa-FcεRIaγ / NFAT-luciferase) EC50(nM), target-expressing CHOK1 cells [3]: 0.589 nM
- ADCC reporter (Jurkat FcγRIIIa-FcεRIaγ / NFAT-luciferase) EC50(nM), target-expressing NCI-N87 cells [3]: 0.15 nM

B4: 16k15-hz22 (antibody, V domains shown, not shown: large carriers)
VH: EVQLVESGGGLVQPGGSLRLSCAGSGITLSTYAMSWVRQAPGKGLEWVSSIISGGITYYLDSVKGRFTISRDNAKNTLYLQMSSLRAEDTAVYYCARKYHGNALDYWGQGTLVTVSS
VL: DIVMTQSPDSLAVSLGERATINCKSSQSLLSSGNQRNYLTWYQQKPGQPPKKLIYWASTRESGVPDRFSGSGSGTDFTLTISSLQAEDLAVYYCQNNYFYPLTFGQGTKLEIK
- CDC EC50(nM), BxPC3 cells stably expressing human CLDN18.2 [2]: 12.2 nM
- CDC EC50(nM), CHOK1 cells stably expressing human CLDN18.2 [2]: 5.2 nM
- CDC EC50(nM), NCI-N87 cells stably expressing human CLDN18.2 [2]: 17.4 nM
- ADCC reporter (Jurkat FcγRIIIa-FcεRIaγ / NFAT-luciferase) EC50(nM), target-expressing BxPC3 cells [3]: 0.176 nM
- ADCC reporter (Jurkat FcγRIIIa-FcεRIaγ / NFAT-luciferase) EC50(nM), target-expressing CHOK1 cells [3]: 0.712 nM
- ADCC reporter (Jurkat FcγRIIIa-FcεRIaγ / NFAT-luciferase) EC50(nM), target-expressing NCI-N87 cells [3]: 0.0677 nM

B5: IMAB362 (antibody, human IgG1, kappa, V domains shown)
VH: QVQLQQPGAELVRPGASVKLSCKASGYTFTSYWINWVKQRPGQGLEWIGNIYPSDSYTNYNQKFKDKATLTVDKSSSTAYMQLSSPTSEDSAVYYCTRSWRGNSFDYWGQGTTLTVSS
VL: DIVMTQSPSSLTVTAGEKVTMSCKSSQSLLNSGNQKNYLTWYQQKPGQPPKLLIYWASTRESGVPDRFTGSGSGTDFTLTISSVQAEDLAVYYCQNDYSYPFTFGSGTKLEIKR
- CDC EC50(nM), BxPC3 cells stably expressing human CLDN18.2 [2]: 52.2 nM
- CDC EC50(nM), CHOK1 cells stably expressing human CLDN18.2 [2]: 30.4 nM
- CDC EC50(nM), NCI-N87 cells stably expressing human CLDN18.2 [2]: 474 nM
- ADCC reporter (Jurkat FcγRIIIa-FcεRIaγ / NFAT-luciferase) EC50(nM), target-expressing BxPC3 cells [3]: 0.106 nM
- ADCC reporter (Jurkat FcγRIIIa-FcεRIaγ / NFAT-luciferase) EC50(nM), target-expressing CHOK1 cells [3]: 0.593 nM
- ADCC reporter (Jurkat FcγRIIIa-FcεRIaγ / NFAT-luciferase) EC50(nM), target-expressing NCI-N87 cells [3]: 0.0909 nM
